Experiment: soluble on expression in E. coli; label from the status in PepcDB or PDB records

| Sequence | soluble on expression in E. coli |
| --- | --- |
| TKLSPELLVKLGSEGVLAGVKDSSGDDVSFRRLVMLNKKAGSPLTLLTGHEAVVDGAFIAGADGCVPGLGNVDPAGYVRMWKAAEAGDWATVQKEQDRLAALFEIVFQPIGKVGPAAGVGSFKTALE | not soluble |
| TLKEMKYKRNQEEIETYYEYTLKIEAINNEMRKFRHDYVNILTTLSEYIREDDMIGLRAYFNKNIVPMKDNLQMNAIKLNGIENLKVREIKGLITAKILRAQEMNIPISIEIPDEVSSINLNMIDLSRSIGIILDNAIEASTEIDDPIIRVAFIESENSVTFIVMNKCADDIPRIHELFQESFSTKGEGRGLGLSTLKEIADNADNVLLDTIIENGFFIQKVEIINN | not soluble |
| TPGKSDEAKDVFQVQDIPPVTAIGQSGLRLNLIGKNDRILNVNSPVLYENFMVGQVESAHFDPSDQSVHYTIFIQSPNDKLIHSASRFWLESGINIETTGSGIKLNSAPLPALLSGAISFDSPKTKNSKNVKSEDSFTLYDSRSEVANLPDDRSLYYTAFFKQSVRGLTVGSPVEYKGLNVGVVSDVPYFDRNDSLHLFENGWIPVRIRIEPSRLEINADEQSKEHWKQQFQTALNKGLTATISSNNLLTGSKMIELNDQPSASPKLRPHTVYAGDTVIATQGGGLDDLQVKLADLLDKFDKLPLDKTVAELNGSLAELKSTLKSANAALSSIDKLVGKPQTQNIPNELNQTLKELRTTLQGVSPQSPIYGDVQNTLQSLDKTLKDVQPVINTLKEKPNALIFNSSSKDPIPKGSR | not soluble |
| TQKPSLYRVLILNDDYTPMEFVVYVLERFFNKSREDATRIMLHVHQNGVGVCGVYTYEVAETKVAQVIDSARRHQHPLQCTMEKD | soluble |
| TRGHGLFRITLVERDGPVGAGIAYATREAEHLLNTRVHNMSAFPDRPDHFRQWLAAEPEGRFSTGDSFVPRGLYRRYLEEILAPWRAGAQLTCVGGECLRIEEVGRGVIAHFSDGSVRLADVAILATGHPRPDPAEDRLLQDPWRAADVPPDARVVLLGSGLTMIDKVLTLLANGHRGEI | not soluble |
| TSDTPALLYIHGLNSSAQSKKACQLIALMKSLGLADRLQVPELHHHPRQAMLQLESAIGALGRPLLVGSSLGGYYATHLAQRHGLKAVLINPAVNPHQLFDGFLGMQQNLYTGEQWQLTEDHIKALAELEVPAPQDPQQFQVWLQTGDETLDYRRAEKFYRACALRIQAGGDHSFQGFAERLPALLSFAGFAPDLLQ | not soluble |
| TSMIIHRDLEVAIRQDNIIPYFQPIVNAKSGEIIGFEALARWPHPTLGIISPLIFIPLAEQGKLIVELGESILNQSCDFIGKLNTKRHSQGLPPLTVHVNLSAQHFYHSRLISFLQSMIEEHNISAGHLVLEITESMLMGGETESIHCINEIKQLGVQLALDDFGTGYASFSSVCNFPLDIVKLDKSYVDEIETNDRAKTLVRNIANMSQELGLTIVAEGVETASQVRKLKVWNIDELQGFYFYKPMTREDAFAQFSGLPHC | not soluble |
| TTAIASDRLKKRFDRWDFDGNGALERADFEKEAQHIAEAFGKDAGAAEVQTLKNAFGGLFDYLAKEAGVGSDGSLTEEQFIRVTENLIFEQGEASFNRVLGPVVKGIVGMCDKNADGQINADEFAAWLTALGMSKAEAAEAFNQVDTNGNGELSLDELLTAVRDFHFGRLDVELLG | soluble |
| TVSQLRSRITRFALAGRGMRETVTWSFISEKQALAFGGGQAQLKLVNPISADMSVMRPSLLPGLLVAAQRNADRGFPDFALFEVSNIYEDDTPDKQHRVAGGIRRGTEQFGGAGRFWNGNARAVDVFDAKADALAVLEACGLESGKVQIEVGAPDWYHPGRSGVIKLGSKIILGFFGVFHPATLEKLDISGPLCGFEIFL | not soluble |
| TVVNDPSCESVVTTPQHSLRDANSPAGLLSIAEETLAEFLSKATGTAVDWVQMPGMKPGPDSVGIFAISQRCNGVAARACGLVSLEPMKIAEILKDRPSWFRDCRSLEVFTMFPAGNGGTIELVYMQTYAPTTLAPARDFWTLRYTTSLDNGSFVVCERSLSGSGAGPNAASASQFVRAEMLSSGYLIRPCDGGGSIIHIVDHLNLEAWSVPDVLRPLYESSKVVAQKMTISALRYIRQLAQESNGEVVYGLGRQPAVLRTFSQRLSRGFNDAVNGFGDDGWSTMHCDGAEDIIVAINSTKHLTNISNSV | soluble |
| VAIDTVITDMDGTLLVKKGDQIHPLNKEVLINWQADGKKLFLATGRLDLAILPFIHELNIKTPVISCNGGLVRDFTTGEILYKSNIELDLVHTVLETLEPLGVNYHIYTTERIIGPTNTGKIAFFNELNKTLSENEQVPITLTTDPFSVLREGEFPLKVLVIESDLEKRAEIKAALQGLPLSVLASASNLIDIMNEGIDKAKGLTYLADNGYINLNSTIAFGDNENDVGMIELAEIGVAMENGIPLALEKADKIAKHHDIGGLGLFMQEEIL | not soluble |
| VAIDYTRRPSSPAAPQGGVSLSKVTLSKAAPSVSLTKSGERQGAMRVNLNWSTGATPQPKKTGFFAKLAAAAGGNNGIDLDLGCLYELADGSKGVVQALGNSFGSLQAPPFIKLDADDRTGTVTGGENLHINLDRPEMFKRILIFAMIYDGAPNWAAVDGVVTLYPTSGPEVEVRLDTSNSSARICAIAMLQNTGQGITVTREVKYIEGSQADLDKTYSWGMKWAAGRK | not soluble |
| VALLGLILPYFVSRWWARTQSYTKKGIHNVTASNFVSNLVNYKPSEIVTTDLILHWLSFAHEFKQFFPDLQPTDFEKLLQDHINRRDSGKLNNAKFRIVAKCHSLLHGLLDIACGFRNLDIALGAINTFKCIVQAVPLTPNCQILQLPNVDKEHFITKTGDIHTLGKLFTLEDAKIGEVLGIKDQAKLNETLRVASHIPNLKIIKADFLVPGENQVTPSSTPYISLKVLVRSAKQPLIPTSLIPEENLTEPQDFESQRDPFAMMSKQPLVPYSFAPFFPTKRRGSWCCLVSSQKDGKILQTPIII | not soluble |
| VDLSDEEKDSIYMFASLVEKMKSRPLNEILEDSKLQNLAQRVFASKARLNYALNDKAQKYNTLIEMNGKISEIMNIYDRLLEQQLQSINLS | soluble |
| VDNARIDLRSKYYVKPKADHPWLTRRTQSHQQVKPPKLPKKKPDPDKKD | soluble |
| VDWTDAERSAIVGLWGKISVDEIGPQALARLLIVSPWTQRHFSTFGNLSTPAAIMGNPAVAKHGKTVMHGLDRAVQNLDDIKNTYATLSVMHSEKLHVDPDNFRLLADCITVCVAAKLGPAVFSADTQEAFQKFLAVVVSALGRQYH | soluble |
| VDYTLRRRSLLAEVYSGRTGVSEVCDANPYLLRAAKFHGKPSRVICPICRKEQLTLVSWVFGEHLGAVSGSARTAEELILLATRFSEFAVHVVEVCRTCSWNHLVKSYVLGAARPARPPRGSGGTRTARNGARTASE | not soluble |
| VEADSNIGYNATFGYQKPMGGAGAYWGMEFGLGSRGFKADEMKCIAHNIQYSPFTFGWKIGVADNLSIDPHLGVFASYDYTSKMKESGESISWGDFADYLEVDYNHFDAGMNIGVGLWYDRFNLDFTYQRGFIDVFSDLDGIKTSNFMIRLGIAF | not soluble |
| VEGRFQLVAPYEPQGDQPQAIAKLVDGLRRGVKHQTLLGATGTGKTFTISNVIAQVNKPTLVIAHNKTLAGQLYSELKEFFPHNAVEYFVSYYDYYQPEAYVPQTDTYIEKDAKINDEIDKLRHSATSALFERRDVIIVASVSCIYGLGSPEEYRELVVSLRVGMEIERNALLRRLVDIQYDRNDIDFRGTFRVRGDVVEIFPASRDEHCIRVEFFGDEIERIRAEVDALTGKVLGEREHVAIFPASHFVTREEKMRLAIQNIEQELEERLAELRAQGKLLEAQRLEQRTRYDLEMMREMGFCSGIENYSRHLALRPPGSTPYTLLDYFPDDFLIIVDESHVTLPQLRGMYNGDRARKQVLVDHGFRLPSALDNRPLTFEEFEQKINQIIYVSATPGPYELEHSPGVVEQIIRPTGLLDPTIDVRPTKGQIDDLIGEIRERVERNERTLVTTLTKKMAEDLTDYLKEAGIKVAYLHSEIKTLERIEIIRDLRLGKYDVLVGINLLREGLDIPEVSLVAILDADKEGFLRSERSLIQTIGRAARNANGHVIMYADTITKSMEIAIQETKRRRAIQEEYNRKHGIVPRTVKKEIRDVIRATYAAEETEMYEAKPAAAMTKQEREELIRTLEAEMKEAAKALDFERAAQLRDIIFELKAEG | soluble |
| VFDRPLFALDFSKCTEKIIQTTELFKELVKEAILLHVVDYGKESEVEENIQKATQKLKEIAEKLDFPSEVVVHSGDASKEILMTAPSVGATLIVIGKRGRNILQLLMGSTAEIVIRNSVLPVLIVP | not soluble |
| VGFAPELYCGLENCYDVLEVNREEFDKQKLAKAYRALARKHHPDRVKNKEEKLLAEERFRVIATAYETLKDDEAKTNYDYYLDHPDQRFYNYYQYYRLRAAPKVDL | soluble |
| VGQMVAVNGYKISVFVKGQGSQTLVFLSGAGTASPILDFKDVYDGFSKEYKIVVVERADYGYSEDTSKSRDVSVILSETRQSLAKSQVSGPYIILSHSMASLETLLWQENYPSEVKAVVCLDWAFPESYFQLKRHPQMLRLARWESQLGLLRLLPRQLYMPNENLSDSDRRLYQEIAYRQLLSQAMLNESLCAKENDKKVNSTSIKSQMPVLLMVSNGKGTGFGQEQWRHYATSFAKGQKNMEVTYYDSPHYFYHYQTKEMIRSIEEFVQETTD | not soluble |
| VKEIIDGFLKFQREAFPKREALFKQLATQQSPRTLFISCSDSRLVPELVTQREPGDLFVIRNAGNIVPSYGPEPGGVSASVEYAVAALRVSDIVICGHSNCGAMTAIASCQCMDHMPAVSHWLRYADSARVVNEARPHSDLPSKAAAMVRENVIAQLANLQTHPSVRLALEEGRIALHGWVYDIESGSIAAFDGATRQFVPLAANPRVCAIPLRQPTAA | soluble |
| VKLLTDLFKAGLRTPSTDQIQKISMELSFYGKIESKNVFYWFQNHKARERQKCRKISTVKFDHRQDTDLSKPRRDNVRRHQLPAKG | not soluble |
| VLHAIEPLNLGPKPIFVHEQGLLVEWIDGITLTKDGIELEELLPIAATIHQYHSSSIPVVPFSYISRIDHYWLELEGKYVGSEFETLYKQWRSEPSVEQIPLALCHFDLGCYNLVRGDQGVKVIDWEYASLADPRLDL | not soluble |
| VLLKEGARGSAPSAPPPLAVPAFFPLEPLTVNLQSDDGVQHYLRVGLSLKLTDPKAQEYLTQHMPELRSRILLALSNKHPEQLATLEGKRALADELKTLIEQPTQPGNQSARVDDVLFTEFVVQ | not soluble |
| VLTEMRADARVAILEELSEAELNFTLAKLDNLSLIEWAESLPDDIFSLALQLISRDELDLYDDAKQYDDDEVGHWADRKIATLPFNVSVGRAKKLLKTNLFESHQYMHLINRAHKFHGIVQYTDILTADDSVKINTLKLEDCLVLNVHQPLSESIEAIEHSAVPSVAIVDDENTLIGQLDWQFAINTQREIYETRLMAGTGMDEGDDLFSPIIKSSKKRGV | not soluble |
| VMVFISSSLNSFRSEKRYSRSLTIAEFKCKLELVVGSPASCMELELYGADDKFYSKLDQEDALLGSYPVDDGCSIHVIDHSG | soluble |
| VNEIVVNPNATLDWQLALRQAAGKTDLARDMLQMLLDFLPEVRNKVEEQLVGENPEGLVDLIHKLHGSCGYSGVPRMKNLCQLIEQQLRSGTKEEDLEPELLELLDEMDNVAREASKIL | not soluble |
| VPTDCTENWVVVYLSGPLFFMSSERLKQTLLQLETKSGVVFSMRGVPSIDSTALDILEEFCLAAEGRGQQVQFAALQPEVEKMIRTIQGNQEKEYHFSVAEFLQTVHVA | not soluble |

From the DeepSol protein solubility set
